Patent US20090131309A1, “ICA512 COUPLES INSULIN SECRETION AND GENE EXPRESSION IN BETA-CELLS” (Technische Universität Dresden Medizinizche Fakultät Carl …, priority 2004, published 2009)
Each block holds one molecule with its values, some of them ahead of it. Residues, ends and D or L forms follow the SMILES beside them. *: point of attachment. Cbz = O=C(OCc1ccccc1)*

Key:
μ-calpain = molecular target: T1, μ-calpain (Homo sapiens, UniProt P07384); assay type: biochemical; conditions: bacterially expressed ICA512 (601-979), 50 μM Ca2+, 30 μM inhibitor
T1 sequence (P07384 1-714): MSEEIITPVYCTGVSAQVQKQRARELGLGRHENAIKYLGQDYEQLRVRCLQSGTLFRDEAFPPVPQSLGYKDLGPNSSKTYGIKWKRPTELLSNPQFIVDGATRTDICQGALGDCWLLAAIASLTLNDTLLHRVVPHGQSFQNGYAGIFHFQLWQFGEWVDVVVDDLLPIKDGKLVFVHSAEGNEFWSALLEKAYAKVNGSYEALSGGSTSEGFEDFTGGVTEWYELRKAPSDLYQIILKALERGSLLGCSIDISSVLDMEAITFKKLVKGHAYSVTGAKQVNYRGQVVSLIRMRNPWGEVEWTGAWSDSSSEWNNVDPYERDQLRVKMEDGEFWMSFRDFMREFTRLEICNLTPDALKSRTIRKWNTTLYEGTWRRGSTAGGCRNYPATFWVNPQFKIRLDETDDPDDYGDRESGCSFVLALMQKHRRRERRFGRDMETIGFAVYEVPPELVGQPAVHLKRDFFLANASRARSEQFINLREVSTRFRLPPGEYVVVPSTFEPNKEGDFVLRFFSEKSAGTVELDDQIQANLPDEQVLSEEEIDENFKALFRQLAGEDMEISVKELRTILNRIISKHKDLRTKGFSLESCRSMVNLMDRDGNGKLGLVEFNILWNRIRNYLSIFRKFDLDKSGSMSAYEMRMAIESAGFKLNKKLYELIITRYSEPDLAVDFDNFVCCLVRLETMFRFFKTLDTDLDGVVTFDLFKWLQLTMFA
T1 sequence (P04632 1-268 partner): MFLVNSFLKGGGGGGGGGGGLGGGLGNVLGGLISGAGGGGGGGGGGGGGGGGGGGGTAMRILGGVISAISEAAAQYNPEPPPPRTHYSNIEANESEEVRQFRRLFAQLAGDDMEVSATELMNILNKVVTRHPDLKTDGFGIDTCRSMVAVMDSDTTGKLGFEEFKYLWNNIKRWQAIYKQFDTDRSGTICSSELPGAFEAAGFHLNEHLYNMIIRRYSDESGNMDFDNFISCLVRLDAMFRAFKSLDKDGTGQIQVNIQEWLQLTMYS
Description: In-vitro μ-calpain cleavage. 3 μg bacterially expressed His-ICA512 cytoplasmic domain (residues 601-979) (Ort et al., 2001) were incubated in 20 μl buffer (20 mM Tris-HCl pH 7.5, 50 μM CaCl2, 1 mM L-cysteine) at room temperature with or without 150 ng μ-calpain (Calbiochem) and 30 μM calpeptin or MG-132 for 1, 5, 15 or 45 minutes. The reactions were stopped by addition of an equal volume of 2×SDS sample buffer. Following SDS-PAGE, proteins were stained with Coomassie Blue (Bio-Rad).

[1] = tested on: T2, 6X histidine-tagged human ICA512 cytoplasmic domain (residues 601-979)
T2 sequence: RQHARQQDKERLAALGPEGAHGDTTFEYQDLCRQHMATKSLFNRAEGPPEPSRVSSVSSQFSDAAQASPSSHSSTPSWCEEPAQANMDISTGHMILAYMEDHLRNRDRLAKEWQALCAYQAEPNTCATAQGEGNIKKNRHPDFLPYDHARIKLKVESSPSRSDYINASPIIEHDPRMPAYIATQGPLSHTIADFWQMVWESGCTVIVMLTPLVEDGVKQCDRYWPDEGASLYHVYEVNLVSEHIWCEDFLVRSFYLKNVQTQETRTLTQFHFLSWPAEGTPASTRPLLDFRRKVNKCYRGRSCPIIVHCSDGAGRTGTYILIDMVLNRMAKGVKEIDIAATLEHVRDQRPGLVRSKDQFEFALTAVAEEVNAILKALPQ

[2] = molecular target: ICA512-TMF (endogenous in INS-1 cells) (rat) (UniProt Q63259); test: cell-based or functional assay
STAT5 = test: Firefly luciferase reporter assay for STAT activity (8GLE-CAS-FL) in INS-1 cells; assay type: cell-based, rat; conditions: co-transfected INS-1 cells, hGH stimulation
Description: Firefly luciferase assays. INS-1 cells were co-transfected with 8GLE-CAS-FL and one or two of the following plasmids: pEGFP, ICA512-CCF-GFP, ICA512-CCF(K/A^754)-GFP and PIASy-GFP. Two days after transfection, cells were incubated in low serum medium for 18 hrs, then stimulated with 20 nM hGH for 20 minutes, and finally left in resting buffer for 6 additional hours. Cells were harvested in 500 μl lysis reagent for luciferase assays (Promega) and 10 μl were used for measurement of luciferase activity in a Berthold luminometer. Each sample was performed in triplicate and the data represent the mean of at least 2 independent experiments.

PIASy = molecular target: T3, PIASy (Mus musculus, UniProt Q9JM05); test: GST pull-down assay with PIASy; assay type: binding; conditions: in-vitro transcribed and translated 35S-labeled partner, glutathione-sepharose beads
T3 construct: made in house; host or cells: in-vitro transcription-translation (T7 coupled system, Promega)
T3 sequence (Q9JM05 2-507): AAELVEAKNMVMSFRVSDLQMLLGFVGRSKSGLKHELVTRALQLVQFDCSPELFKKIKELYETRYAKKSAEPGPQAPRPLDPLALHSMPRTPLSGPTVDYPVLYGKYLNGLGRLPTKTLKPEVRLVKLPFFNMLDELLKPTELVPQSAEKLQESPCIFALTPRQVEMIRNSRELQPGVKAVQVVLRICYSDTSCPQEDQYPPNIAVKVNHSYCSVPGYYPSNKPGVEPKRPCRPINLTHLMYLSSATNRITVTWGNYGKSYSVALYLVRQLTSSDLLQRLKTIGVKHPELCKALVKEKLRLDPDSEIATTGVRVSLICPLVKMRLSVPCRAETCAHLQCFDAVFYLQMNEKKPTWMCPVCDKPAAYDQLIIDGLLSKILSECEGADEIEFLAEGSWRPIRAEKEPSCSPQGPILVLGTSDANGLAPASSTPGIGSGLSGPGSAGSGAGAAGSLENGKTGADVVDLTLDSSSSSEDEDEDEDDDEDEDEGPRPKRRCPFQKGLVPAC
Description: GST-Pull Down Assays. ICA512 (601-979) cDNA in pET28a (invitrogen) (29) was in vitro transcribed and translated using the T7/coupled transcription-translation system (Promega, Madison, Wis.) according to manufacture's instructions. PIAS1-GST and PIASy-GST (a kind gift of Rudolf Grosschedl) were expressed in bacteria as previously described (21, 30). Next, [^35S]-methionine-labeled ICA512 (601-979) was incubated overnight at 4° C. in GST binding buffer (120 mM NaCl, 50 mM Tris pH8, 0.25% Nonidet P-40, 1 mM DTT, 1 mM PMSF) with GST-fusion proteins or GST alone coupled to glutathione-sepharose beads (Amersham, Freiburg, Germany). Beads were washed five times with binding buffer, and then eluted with 10 mM reduced glutathione. The eluate was subjected to SDS-PAGE and analyzed by autoradiography.
Pull-down assays. GST-ICA512 (601-979), GST-ICA512 (700-979), and GST-ICA512 (800-979) were bacterially expressed as described^26. [^35S]-methionine-PIASy, -ICA512 (601-979), -p53 and -firefly luciferase were in-vitro transcribed and translated with the T7/coupled transcription-translation system (Promega) according to the manufacturer's instructions. [^35S]-PIASy was incubated with GST-ICA512 proteins or GST, while [^35S]-ICA512 (601-979), [^35S]-p53 and [^35S]-firefly luciferase were incubated with MBP-Ubc9. Proteins were collected with glutathione-(Amersham) or amylose-(New England Biolabs) sepharose beads as described^38. Proteins eluted from beads with glutathione or maltose were analyzed by SDS-PAGE and autoradiography with a phosphoimager BAS1800 II (Fuji).

Molecule: CC(C)C[C@@H](C=O)NC(=O)[C@H](CC(C)C)NC(=O)[C@H](CC(C)C)NC(=O)OCc1ccccc1 [MG-132] (Cbz-Leu-Leu-Leu-aldehyde)
Cleavage by μ-calpain (μ-calpain): inhibited

Molecule: µ-calpain (Calbiochem)
in-vitro cleavage of bacterially expressed ICA512 (601-979) by µ-calpain, Coomassie Blue staining [1]: Cleavage by µ-calpain was inhibited by calpeptin and MG-132, another inhibitor of cysteine proteases (FIG. 8)

stimulus-dependent degradation of ICA512-TMF after siRNA knockdown of µ-calpain in INS-1 cells [2]: 1.6 fold
Molecule: rat µ-calpain (endogenous in INS-1 cells) (from UniProt P97571 1-713)

B1: ICA512-CCF(K/A^754)-GFP: ICA512-CCF-GFP construct in which Lys754 was replaced by alanine (protein)
chain: SQFSDAAQASPSSHSSTPSWCEEPAQANMDISTGHMILAYMEDHLRNRDRLAKEWQALCAYQAEPNTCATAQGEGNIKKNRHPDFLPYDHARIKLAVESSPSRSDYINASPIIEHDPRMPAYIATQGPLSHTIADFWQMVWESGCTVIVMLTPLVEDGVKQCDRYWPDEGASLYHVYEVNLVSEHIWCEDFLVRSFYLKNVQTQETRTLTQFHFLSWPAEGTPASTRPLLDFRRKVNKCYRGRSCPIIVHCSDGAGRTGTYILIDMVLNRMAKGVKEIDIAATLEHVRDQRPGLVRSKDQFEFALTAVAEEVNAILKALPQ
modifications: left off: large carriers
notes: ICA512-CCF-GFP construct in which Lys754 was replaced by alanine
STAT5 transcription activity (8GLE-CAS-FL luciferase) (STAT5): enhances its transcription activity less than ICA512-CCF-GFP

binding to PIASy in pull-down assay (PIASy): bound
B2: GST-ICA512 (601-979): GST fusion encompassing the entire ICA512 cytoplasmic domain (protein)
chain: T2 sequence
modifications: left off: a dimerising Fc or GST
notes: GST fusion encompassing the entire ICA512 cytoplasmic domain

binding to PIASy in pull-down assay (PIASy): did not bind
B3: GST-ICA512 (800-979): GST fusion which lacks the first 100 residues of the PTP domain (protein)
chain: ESGCTVIVMLTPLVEDGVKQCDRYWPDEGASLYHVYEVNLVSEHIWCEDFLVRSFYLKNVQTQETRTLTQFHFLSWPAEGTPASTRPLLDFRRKVNKCYRGRSCPIIVHCSDGAGRTGTYILIDMVLNRMAKGVKEIDIAATLEHVRDQRPGLVRSKDQFEFALTAVAEEVNAILKALPQ
modifications: left off: a dimerising Fc or GST
notes: GST fusion which lacks the first 100 residues of the PTP domain

binding to PIASy in pull-down assay (PIASy): bound
B4: GST-ICA512 (700-979): GST fusion which only contains the PTP domain (protein)
chain: EDHLRNRDRLAKEWQALCAYQAEPNTCATAQGEGNIKKNRHPDFLPYDHARIKLKVESSPSRSDYINASPIIEHDPRMPAYIATQGPLSHTIADFWQMVWESGCTVIVMLTPLVEDGVKQCDRYWPDEGASLYHVYEVNLVSEHIWCEDFLVRSFYLKNVQTQETRTLTQFHFLSWPAEGTPASTRPLLDFRRKVNKCYRGRSCPIIVHCSDGAGRTGTYILIDMVLNRMAKGVKEIDIAATLEHVRDQRPGLVRSKDQFEFALTAVAEEVNAILKALPQ
modifications: left off: a dimerising Fc or GST
notes: GST fusion which only contains the PTP domain
